Measured values reported in patent US11198713B2, “Agents modulating beta-catenin functions and methods thereof” (FOG PHARMACEUTICALS, INC., priority 2017, dated 2021).
In brackets after ≈: the same amount, converted by molar mass. Numbered stars: 1 amine (or outer) side, 2 acyl side, 3 side chain; on linkers, the order of the positions; unused ones are H or OH. Bridge positions count the residues as written; N and C are the ends. Square brackets hold non-standard residues; d marks the D form. Primed or numbered codes have the meaning given here. Peptide text beside a SMILES is read from it. * marks the point of attachment. MB(10) = Monomer B = PyrS, pyrrolidine stapling residue with allyl carbamate, (S)-3-amino-1-(allyloxycarbonyl)pyrrolidine-3-carboxylic acid, C=CCOC(=O)N1CC[C@@](N[*:1])(C(=O)[*:2])C1; MB(4) = Monomer B (PyrS), N-Alloc pyrrolidine stapling residue, (S)-3-amino-1-(allyloxycarbonyl)pyrrolidine-3-carboxylic acid, C=CCOC(=O)N1CC[C@@](N[*:1])(C(=O)[*:2])C1; MB(6) = Monomer B (PyrS), N-Alloc pyrrolidine stapling residue, forms carbamate staple with R8 by olefin metathesis; R7″ = stapling residue, (R)-2-(6-heptenyl)alanine (drawn only), C=CCCCCC[C@@](C)(N[*:1])C(=O)[*:2]; MB = Monomer B = PyrS, Alloc-pyrrolidine stapling residue (allyl carbamate on pyrrolidine N); MB(13) = Monomer B (PyrS), pyrrolidine stapling residue bearing Alloc; R7 = (R)-2-(6-heptenyl)alanine, C=CCCCCC[C@@](C)(N[*:1])C(=O)[*:2]; MB(5) = Monomer B (PyrS), N-Alloc pyrrolidine stapling residue; dαMeDab(Me) = CN(CC[C@@](C)(N[*:1])C(=O)[*:2])[*:3]; X1 = O=C([C@]1(N[*:1])CCN([*:3])C1)[*:2]; αMeW = C[C@](N)(Cc1c[nH]c2ccccc12)C(=O)O; Phe(4-Me) = Cc1ccc(C[C@H](N)C(=O)O)cc1; Met(O2) = CS(=O)(=O)CC[C@H](N)C(=O)O; X2 = O=C(OCC=CCOC(=O)[*:2])[*:1]; 2Pal = N[C@@H](Cc1ccccn1)C(=O)O; 4Pal = N[C@@H](Cc1ccncc1)C(=O)O; R8 = C=CCCCCCC[C@@](C)(N)C(=O)O; αMeL = CC(C)C[C@](C)(N)C(=O)O; Lauroyl = CCCCCCCCCCCC(=O)*; Octanoyl = CCCCCCCC(=O)*; Aib = CC(C)(N)C(=O)O

T1: full-length beta-catenin (UniProt P35222 2-781, limits assumed)
T1 construct: mature; also called full-length ß-Catenin; β-catenin
T1 sequence (looked up): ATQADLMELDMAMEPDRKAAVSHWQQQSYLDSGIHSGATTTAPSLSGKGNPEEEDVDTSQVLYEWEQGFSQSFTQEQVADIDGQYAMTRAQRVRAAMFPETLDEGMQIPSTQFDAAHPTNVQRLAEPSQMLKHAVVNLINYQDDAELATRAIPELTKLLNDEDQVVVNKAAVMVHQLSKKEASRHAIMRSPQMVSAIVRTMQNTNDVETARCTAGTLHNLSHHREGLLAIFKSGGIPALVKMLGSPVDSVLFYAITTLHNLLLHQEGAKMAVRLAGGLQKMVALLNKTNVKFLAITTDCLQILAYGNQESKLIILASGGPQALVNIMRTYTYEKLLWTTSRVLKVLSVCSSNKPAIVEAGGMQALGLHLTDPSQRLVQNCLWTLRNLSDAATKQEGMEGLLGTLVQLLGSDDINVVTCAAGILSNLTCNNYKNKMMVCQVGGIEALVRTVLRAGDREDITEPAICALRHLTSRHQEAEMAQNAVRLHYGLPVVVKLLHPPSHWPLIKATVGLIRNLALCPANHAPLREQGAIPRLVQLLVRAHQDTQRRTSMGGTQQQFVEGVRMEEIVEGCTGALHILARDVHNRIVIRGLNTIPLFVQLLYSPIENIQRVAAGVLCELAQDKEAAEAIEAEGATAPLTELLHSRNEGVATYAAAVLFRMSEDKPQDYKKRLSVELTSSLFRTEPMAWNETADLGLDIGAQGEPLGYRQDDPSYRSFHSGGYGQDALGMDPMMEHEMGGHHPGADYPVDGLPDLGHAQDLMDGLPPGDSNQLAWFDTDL

B1: FP0570c Isomer 1 (peptide)
peptide: Ac-A[R8]ILDA[2Pal]I[MB(6)][Aib]VW-NH2
modifications: staple 2-9; not fully specified; printed as Ac-A-R8-I-L-D-A-2pyr-I-MB-Aib-V-W-NH2
B2: FP0570c Isomer 2 (peptide)
peptide: Ac-A[R8]ILDA[2Pal]I[MB(6)][Aib]VW-NH2
modifications: staple 2-9; not fully specified; printed as Ac-A-R8-I-L-D-A-2pyr-I-MB-Aib-V-W-NH2
B3: FP0578c Isomer 2 (peptide)
peptide: Ac-A[R8]ILDA[2Pal]I[MB(4)][Phe(4-Me)]VW-NH2
modifications: staple 2-9; not fully specified; printed as Ac-A-R8-I-L-D-A-2pyr-I-MB-4MeF-V-W-NH2
B4: FP0578c Isomer 1 (peptide)
peptide: Ac-A[R8]ILDA[2Pal]I[MB(4)][Phe(4-Me)]VW-NH2
modifications: staple 2-9; not fully specified; printed as Ac-A-R8-I-L-D-A-2pyr-I-MB-4MeF-V-W-NH2
B5: FP0495a (peptide)
peptide: Ac-A[R7]ILDAHI[MD]RVW-NH2
modifications: staple 2-9; not fully specified; printed as Ac-A-R7-I-L-D-A-H-I-MD-R-V-W-NH2; also: amino staple R7/MD (-N(R')-, after CO2 extrusion from carbamate staple)
B6: FP0365c Isomer 1 (peptide)
peptide: AXILDAHIXAVW
modifications: not fully specified; Ac-A-R8-I-L-D-A-H-I-MB-1NapA-V-W-NH2; carbamate staple R8/MB
B7: FP0365c Isomer 2 (peptide)
peptide: AXILDAHIXAVW
modifications: not fully specified; Ac-A-R8-I-L-D-A-H-I-MB-1NapA-V-W-NH2; carbamate staple R8/MB

Test system: not listed separately
Assay: Solubility in DPBS (A280 of supernatant)
Assay type: physicochemical
Conditions: DPBS, Table 2; read-out: Solubility
Method: Suitable assays for assessing solubility are widely known in the art and can be utilized in accordance with the present disclosure. In some embodiments, in an exemplary protocol, dried peptide was reconstituted in DPBS (DPBS, 1×, cell culture grade, Sigma D8537) in triplicate, vortexed, sonicated and then centrifuged. Absorbance of the supernatant was measured at A280 (Nanodrop 2000) and the concentration was determined using the extinction coefficient for tryptophan. Exemplary solubility data are presented in, e.g., Table 2.

solubility | Molecule
4 µM (≈ 7.02 µg/mL) | CCCCCCCCCCCC(=O)N[C@@H](C)C(=O)N[C@]1(C)CCN(C)C(=O)OCC=CCOC(=O)N2CC[C@@](C(=O)N[C@@H](CCCNC(=N)N)C(=O)N[C@H](C(=O)N[C@@H](Cc3c[nH]c4ccccc34)C(N)=O)C(C)C)(C2)NC(=O)[C@H]([C@@H](C)CC)NC(=O)[C@H](Cc2c[nH]cn2)NC(=O)[C@H](C)NC(=O)[C@H](CC(=O)O)NC(=O)[C@H](CC(C)C)NC(=O)[C@H]([C@@H](C)CC)NC1=O [FP0597c_c12, Dodec-A-MG-I-L-D-A-H-I-MB-R-V-W-NH2] (Lauroyl-A[dαMeDab(Me)]ILDAHI[X1]RVW-NH2; linker 2-9 via X2)

Same assay, conditions: DPBS; read-out: solubility

solubility thermodynamic | Molecule
7 µM (≈ 11.1 µg/mL) | CC[C@H](C)[C@@H]1NC(=O)[C@H](Cc2c[nH]cn2)NC(=O)[C@H](C)NC(=O)[C@H](CC(=O)O)NC(=O)[C@H](CC(C)C)NC(=O)[C@H]([C@@H](C)CC)NC(=O)[C@](C)(NC(=O)[C@H](C)NC(C)=O)CCCCCCC=CCOC(=O)N2CC[C@@](C(=O)N[C@@H](CCCNC(=N)N)C(=O)N[C@H](C(=O)N[C@@H](Cc3c[nH]c4ccccc34)C(N)=O)C(C)C)(C2)NC1=O (single isomer, unassigned) [FPO217c, Ac-AR8ILDAHIMBRVW (SEQ ID NO: 280)]

Same assay, conditions: Table 2; read-out: Solubility

solubility | Molecule
2 µM (≈ 3.4 µg/mL) | CCCCCCCC(=O)N[C@@H](C)C(=O)N[C@]1(C)CCN(C)C(=O)OCC=CCOC(=O)N2CC[C@@](C(=O)N[C@@H](CCCNC(=N)N)C(=O)N[C@H](C(=O)N[C@@H](Cc3c[nH]c4ccccc34)C(N)=O)C(C)C)(C2)NC(=O)[C@H]([C@@H](C)CC)NC(=O)[C@H](Cc2c[nH]cn2)NC(=O)[C@H](C)NC(=O)[C@H](CC(=O)O)NC(=O)[C@H](CC(C)C)NC(=O)[C@H]([C@@H](C)CC)NC1=O [FP0597c_c8, Oct-A-MG-I-L-D-A-H-I-MB-R-V-W-NH2] (Octanoyl-A[dαMeDab(Me)]ILDAHI[X1]RVW-NH2; linker 2-9 via X2)

Target: T1, full-length beta-catenin
Assay: competition FP; NB = no binding detected
Conditions: not given
Method: (§1) In some embodiments, a competition fluorescence polarization assay is used to assess binding of provided compounds to beta-catenin. In an exemplary procedure, solutions of provided compounds, e.g., provided stapled peptides, were prepared in a buffer (e.g., 50 mM Tris pH 8.0, 250 mM NaCl, 2% glycerol, 0.5 mM EDTA, 0.02% w/v sodium azide) using a 3-fold serial dilution from 5 µM. Probe solution (15 nM full-length ß-Catenin, 20 nM FITC labeled peptide in buffer) was prepared and incubated for a period of time, e.g., 5 minutes, and the a volume, e.g., 40 µL per well plated in suitable plate, e.g., a black polystyrene 384-well plate (Corning). Equal volume of the serial diluted peptide was added to the plate and incubated protected from light for 15 minutes prior to read. Reads were performed on a Spectramax M5 (Molecular Devices) in duplicate. Suitable probe was FITC-PEG1-PQ-S5-ILD-S5-HVRRVWR (SEQ ID NO: 1) (hydrocarbon staple formed by two S5 via olefin metathesis) and/or FITC-bA-PQ-S5-ILD-S5-HVRRVWR (SEQ ID NO: 3) (hydrocarbon staple formed by two S5 via olefin metathesis). […] Another peptide, FPO217c (Ac-AR_8ILDAHIM$B5$RVW (SEQ ID NO: 280), with N-terminal proline removed and valine replaced with isoleucine compared to FP0025c) was prepared.

binding result | Molecule
no binding | B1
no binding | B2
no binding | B3
no binding | B4

Target: T1, full-length beta-catenin
Assay: competition FP, grade of FP EC50 (+: 500-5000 nM)
Conditions: not given
Method: as §1

FP EC50 | Molecule
500 to 5000 nM | Ac-A[R8]ILDAHI[MB]RVW-NH2 (staple 2-9; also: Isomer 1, staple olefin E/Z not assigned, also called FPO217c Isomer 1) [FP0217c Isomer 1]
500 to 5000 nM | Ac-A[R7″]ILDAHI[MA]RVW-NH2 (staple 2-9; not fully specified; printed as Ac-A-R7-I-L-D-A-H-I-MA-R-V-W-NH2) [FP0516a Isomer 2]
500 to 5000 nM | AXILDAHIXRVW (not fully specified; Ac-A-R5-I-L-D-A-H-I-MH-R-V-W-NH2; amino staple R5/MH) [FP0510a]
500 to 5000 nM | B5
500 to 5000 nM | AXILDAHIXRVW (not fully specified; Ac-A-MG-I-L-D-A-H-I-ME-R-V-W-NH2; carbamate staple MG/ME) [FP0596c]
500 to 5000 nM | Ac-A[R8]ILDAHI[MB(4)]RV[αMeW]-NH2 (staple 2-9) [FP0631c]
500 to 5000 nM | AXILDAHIXRVW (not fully specified; Ac-A-MI-I-L-D-A-H-I-S6-R-V-W-NH2; carbamate staple MI/S6) [FP0507c]
500 to 5000 nM | AXILDAHIXRVW (not fully specified; Ac-A-R4-I-L-D-A-H-I-MH-R-V-W-NH2; amino staple R4/MH) [FP0509a]
500 to 5000 nM | B6
500 to 5000 nM | AXALDAHIXRVW (not fully specified; Ac-A-R8-A-L-D-A-H-I-MB-R-V-W-NH2; carbamate staple R8/MB) [FP0405c]
500 to 5000 nM | Ac-A[R8]ILDAHI[MB(10)]SVW-NH2 (staple 2-9) [FP0542c]
500 to 5000 nM | Ac-A[R8]ILDAHI[MB(4)]R[αMeL]W-NH2 (staple 2-9) [FP0633c]
500 to 5000 nM | B7
500 to 5000 nM | Ac-A[R8]IL[Met(O2)]AHI[MB(5)]RVW-NH2 (staple 2-9) [FP0629c]
500 to 5000 nM | AXILAAHIXRVW (not fully specified; Ac-A-R8-I-L-A-A-H-I-MB-R-V-W-NH2; carbamate staple R8/MB) [FP0407c]
500 to 5000 nM | Ac-A[R8]ILDA[4Pal]I[MB(13)]RVW-NH2 (staple 2-9) [FP0538c]
